The results in this text go back to article PMC10937712, “Natural variation in OsMYB8 confers diurnal floret opening time divergence between indica and japonica subspecies”.

The target in this series is T1, OsMYB8 (Oryza sativa, UniProt A0A0P0V5Q1 51-278).
T1 sequence: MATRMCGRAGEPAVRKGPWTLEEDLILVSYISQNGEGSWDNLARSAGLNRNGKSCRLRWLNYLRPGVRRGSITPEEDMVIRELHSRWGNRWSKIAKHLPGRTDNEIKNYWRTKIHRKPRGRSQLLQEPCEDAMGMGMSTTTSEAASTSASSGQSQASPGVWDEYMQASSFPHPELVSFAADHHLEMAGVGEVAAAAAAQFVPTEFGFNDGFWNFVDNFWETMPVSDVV
As to the kind of experiment: EMSA; Beyotime chemiluminescent EMSA kit binding buffer (composition, salt, pH not stated), 20 min, room temperature, 5% native PAGE; 5x and 20x cold competitor. Conditions: protein: recombinant; tags: N-terminal GST (pGEX-4T1); label: biotin; blunt.

B1: JAR1-P3-probe (dsDNA)
DNA 1: CAGTGTACCTAGTGATGTACCCGCCGAATACGTACGCGTGTATGCATGGGTAGAGA
DNA 2: TCTCTACCCATGCATACACGCGTACGTATTCGGCGGGTACATCACTAGGTACACTG
Regarding B1, the binding result is listed as “binds”.

B2: JAR1-P1-probe (dsDNA)
DNA 1: AAAATAAATGACTTAGGAAAGAACCAAAACATCTTACATTATAGTATAAAGAAG
DNA 2: CTTCTTTATACTATAATGTAAGATGTTTTGGTTCTTTCCTAAGTCATTTATTTT
B2: the binding result is given as “binds”.
